Drawing on the RNAGym collection of RNA variant scans (doi:10.7554/elife.90254), this text covers self-cleavage for 56 variants.

Sequences and labels used below:
B1: LINE1-mini (parent)
chain: GGCAGAGCUCAACACAGCGUGGCAAAGUGGCUGUGGCUAGACUGCC

This data set covers variants of B1. Nature of the data set: self-cleavage, relative activity (ratio to wild type); higher = more cleavage; in vitro, sequencing; the parent is a self-cleaving ribozyme.
In the case of GGCAGAGCUCAACACAGCGUUGCAAAGUGGCUGUGGCUACACUGCC [G21U G40C], the self-cleavage was determined as 0.11. For GGCAGAGCUCAACACAGCGUUGCAAAGUGGCUGUGGCUAAACUGCC [G21U G40A] the value was 0.29; for GGCAGAGCUCAACACAGCGUUGCAAAGUGGCUGUGGCUAUACUGCC [G21U G40U], 0.18; for GGCAGAGCUCAACACAGCGUGACAAAGUGGCUGUGGCUAGACUGAC [G22A C45A], 0.67.

In the case of GGCAGAGCUCAACACAGCGUGACAAAGUGGCUGUGGCUAGACUGGC [G22A C45G], the self-cleavage came out at 0.32. For GGCAGAGCUCAACACAGCGUGACAAAGUGGCUGUGGCUAGACUGUC [G22A C45U] the value was 1.44; for GGCAGAGCUCAACACAGCGUGACAAAGUGGCUGUGGCUAGAAUGCC [G22A C42A], 0.35; for GGCAGAGCUCAACACAGCGUGACAAAGUGGCUGUGGCUAGAUUGCC [G22A C42U], 0.7.

For the variant GGCAGAGCUCAACACAGCGUGACAAAGUGGCUGUGGCUAGAGUGCC [G22A C42G], the self-cleavage was found to be 0.03. In the case of GGCAGAGCUCAACACAGCGUUGCAAAGUGGCUGUGCCUAGACUGCC [G21U G36C], the self-cleavage was 0.1. The figure for GGCAGAGCUCAACACAGCGUUGCAAAGUGGCUGUGACUAGACUGCC [G21U G36A] is 0.27; for GGCAGAGCUCAACACAGCGUUGCAAAGUGGCUGUGUCUAGACUGCC [G21U G36U] it is 0.12; for GGCAGAGCUCAACACAGCGUGCCAAAGUGGCUGUGGCUAGACUGCC [G22C] it is 0.78.

With GGCAGAGCUCAACACAGCGUGACAAAGUGGCUGUGGCUAGACUGCC [G22A], the self-cleavage stood at 0.81. Turning to GGCAGAGCUCAACACAGCGUGACAAAGUGGCUGUGGCUAGCCUGCC [G22A A41C], the self-cleavage came to 0.09.

With GGCAGAGCUCAACACAGCGUGACAAAGUGGCUGUGGCUAGUCUGCC [G22A A41U], the self-cleavage was determined as 0.66. For GGCAGAGCUCAACACAGCGUGACAAAGUGGCUGUGGCUAGGCUGCC [G22A A41G] the value was 0.31; for GGCAGAGCUCAACACAGCGUGACAAAGUGGCUGUGGCUAGACUGCU [G22A C46U], 0.84; for GGCAGAGCUCAACACAGCGUGACAAAGUGGCUGUGGCUAGACUGCA [G22A C46A], 1.03. For GGCAGAGCUCAACACAGCGUGACAAAGUGGCUGUGGCUAGACUGCG [G22A C46G] the value was 1.22. The figure for GGCAGAGCUCAACACAGCGUGACAAAGUGGCUAUGGCUAGACUGCC [G22A G33A] is 0.52; for GGCAGAGCUCAACACAGCGUGACAAAGUGGCUCUGGCUAGACUGCC [G22A G33C] it is 0.05. In the case of GGCAGAGCUCAACACAGCGUGACAAAGUGGCUUUGGCUAGACUGCC [G22A G33U], the self-cleavage turned out to be 0.22. The figure for GGCAGAGCUCAACACAGCGUGCCGAAGUGGCUGUGGCUAGACUGCC [G22C A24G] is 0.74; for GGCAGAGCUCAACACAGCGUGCCCAAGUGGCUGUGGCUAGACUGCC [G22C A24C] it is 0.85. The figure for GGCAGAGCUCAACACAGCGUGCCUAAGUGGCUGUGGCUAGACUGCC [G22C A24U] is 0.52; for GGCAGAGCUCAACACAGCGUGAGAAAGUGGCUGUGGCUAGACUGCC [G22A C23G] it is 0.47; for GGCAGAGCUCAACACAGCGUGAUAAAGUGGCUGUGGCUAGACUGCC [G22A C23U] it is 1.14. As for GGCAGAGCUCAACACAGCGUGAAAAAGUGGCUGUGGCUAGACUGCC [G22A C23A], the self-cleavage is 0.42. For GGCAGAGCUCAACACAGCGUGACAAAGUGGCUGUGGCUAGACUCCC [G22A G44C] the value was 0.23; for GGCAGAGCUCAACACAGCGUGACAAAGUGGCUGUGGCUAGACUACC [G22A G44A], 0.97. The figure for GGCAGAGCUCAACACAGCGUGACAAAGUGGCUGUGGCUAGACUUCC [G22A G44U] is 0.34; for GGCAGAGCUCAACACAGCGUGACAAAGUGGCUGAGGCUAGACUGCC [G22A U34A] it is 0.2. The figure for GGCAGAGCUCAACACAGCGUGACAAAGUGGCUGGGGCUAGACUGCC [G22A U34G] is 0.51. Take GGCAGAGCUCAACACAGCGUGACAAAGUGGCUGCGGCUAGACUGCC [G22A U34C]: the self-cleavage worked out at 0.87.

Regarding GGCAGAGCUCAACACAGCGUGACAAAGUGGCUGUGGCUAGACAGCC [G22A U43A], the self-cleavage was found to be 0.06. Consider GGCAGAGCUCAACACAGCGUGACAAAGUGGCUGUGGCUAGACGGCC [G22A U43G], for which the self-cleavage was 0.

As for GGCAGAGCUCAACACAGCGUGACAAAGUGGCUGUGGCUAGACCGCC [G22A U43C], the self-cleavage was 0.07. For GGCAGAGCUCAACACAGCGUGACCAAGUGGCUGUGGCUAGACUGCC [G22A A24C] the value was 0.48; for GGCAGAGCUCAACACAGCGUGACGAAGUGGCUGUGGCUAGACUGCC [G22A A24G], 1.53. For GGCAGAGCUCAACACAGCGUGACUAAGUGGCUGUGGCUAGACUGCC [G22A A24U] the value was 0.75; for GGCAGAGCUCAACACAGCGUGACAAAGUGGCAGUGGCUAGACUGCC [G22A U32A], 0.07; for GGCAGAGCUCAACACAGCGUGACAAAGUGGCCGUGGCUAGACUGCC [G22A U32C], 1.4. The figure for GGCAGAGCUCAACACAGCGUGACAAAGUGGCGGUGGCUAGACUGCC [G22A U32G] is 0.14; for GGCAGAGCUCAACACAGCGUGACACAGUGGCUGUGGCUAGACUGCC [G22A A25C] it is 0.8. In the case of GGCAGAGCUCAACACAGCGUGACAUAGUGGCUGUGGCUAGACUGCC [G22A A25U], the self-cleavage turned out to be 1.38. With GGCAGAGCUCAACACAGCGUGACAGAGUGGCUGUGGCUAGACUGCC [G22A A25G], the self-cleavage is 1.23. The figure for GGCAGAGCUCAACACAGCGUGCCAAAGUGGCUGUGGCUCGACUGCC [G22C A39C] is 0.19; for GGCAGAGCUCAACACAGCGUGCCAAAGUGGCUGUGGCUGGACUGCC [G22C A39G] it is 0.09.

As for GGCAGAGCUCAACACAGCGUGACAAAGCGGCUGUGGCUAGACUGCC [G22A U28C], the self-cleavage was 0.51. For GGCAGAGCUCAACACAGCGUGACAAAGGGGCUGUGGCUAGACUGCC [G22A U28G], the self-cleavage was 0.67. For GGCAGAGCUCAACACAGCGUGACAAAGAGGCUGUGGCUAGACUGCC [G22A U28A] the value was 0.4; for GGCAGAGCUCAACACAGCGUGACAAAGUGGCUGUGACUAGACUGCC [G22A G36A], 0.1; for GGCAGAGCUCAACACAGCGUGACAAAGUGGCUGUGUCUAGACUGCC [G22A G36U], 0.15. The figure for GGCAGAGCUCAACACAGCGUGACAAAGUGGCUGUGCCUAGACUGCC [G22A G36C] is 0.13; for GGCAGAGCUCAACACAGCGUUGCAAAGUGGCUGUGGCUAGACAGCC [G21U U43A] it is 0.08.
